Results reported in paper doi:10.64898/2025.12.19.695307.

Target: R1-32 (human)
Test: BLI

## SARS-CoV-2 Omicron BA.2.11 RBD (from UniProt P0DTC2 332-527) (domain or fragment)
  Kd: > 55 nM
